PMC3156789 (Biochemistry, 2011)

What was measured:
CHK = type: biochemical; conditions: in vitro
c-Src = conditions: read-out: dissociation constant (KD) of the CSK/c-Src complex; surface plasmon resonance; ref [9] Levinson et al.; cited from earlier work
[1] = aqueous solution; size exclusion chromatography and sedimentation velocity; ref [24]; cited from earlier work

B1: 14-3-3β: recombinant 14-3-3β (protein, UniProt P31946 1-246, looked up)
14-3-3 protein beta/alpha: MTMDKSELVQKAKLAEQAERYDDMAAAMKAVTEQGHELSNEERNLLSVAYKNVVGARRSSWRVISSIEQKTERNEKKQQMGKEYREKIEAELQDICNDVLELLDKYLIPNATQPESKVFYLKMKGDYFRYLSEVASGDNKQTTVSNSQQAYQEAFEISKKEMQPTHPIRLGLALNFSVFYYEILNSPEKACSLAKTAFDEAIAELDTLNEESYKDSTLIMQLLRDNLTLWTSENQGDEGDAGEGEN
Question: Which results are given for B1?
Answer: level of CHK phosphorylation (CHK; purified recombinant proteins): negligible level; direct phosphorylation by CHK (CHK; purified recombinant proteins (SFig. 4A)): CHK could directly phosphorylate all three protein substrates in vitro

B2: CSK: C-terminal Src kinase (protein, UniProt P41240 2-450, looked up)
Tyrosine-protein kinase CSK: SAIQAAWPSGTECIAKYNFHGTAEQDLPFCKGDVLTIVAVTKDPNWYKAKNKVGREGIIPANYVQKREGVKAGTKLSLMPWFHGKITREQAERLLYPPETGLFLVRESTNYPGDYTLCVSCDGKVEHYRIMYHASKLSIDEEVYFENLMQLVEHYTSDADGLCTRLIKPKVMEGTVAAQDEFYRSGWALNMKELKLLQTIGKGEFGDVMLGDYRGNKVAVKCIKNDATAQAFLAEASVMTQLRHSNLVQLLGVIVEEKGGLYIVTEYMAKGSLVDYLRSRGRSVLGGDCLLKFSLDVCEAMEYLEGNNFVHRDLAARNVLVSEDNVAKVSDFGLTKEASSTQDTGKLPVKWTAPEALREKKFSTKSDVWSFGILLWEIYSFGRVPYPRIPLKDVVPRVEKGYKMDAPDGCPPAVYEVMKNCWHLDAAMRPSFLQLREQLEHIKTHELHL
Question: With B2 as the molecule, how does the Kd (c-Src) read?
Answer: 4 to 64 µM

B3: CHK-His6: GSGS linker and a polyhistidine tag attached to the C-terminus of the rat CHK sequence (protein)
chain: MPTQRWAPGTQCMTKCENSRPKPGELAFRKGDMVTILEACEDKSWYRAKHHSSGQEGLLAAAALRQREALSTDPKLSLMPWFHGKISGQEAIQQLQPPEDGLFLVRESARHPGDYVLCVSFGRDVIHYRVLHRDGHLTIDEAVCFCNLMDMVEHYTRDKGAICTKLVKPKRKQGAKSAEEELAKAGWLLDLQHLTLGAQIGEGEFGAVLQGEYLGQKVAVKNIKCDVTAQAFLDETAVMTKLQHRNLVRLLGVILHHGLYIVMEHVSKGNLVNFLRTRGRALVSTSQLLQFALHVAEGMEYLESKKLVHRDLAARNILVSEDLVAKVSDFGLAKAELRKGLDSSRLPVKWTAPEALKNGRFSSKSDVWSFGVLLWEVFSYGRAPYPKMSLKEVSEAVEKGYRMEPPDSCPGPVHTLMGSCWEAEPSRRPPFRKIVEKLGRELRSVGVAAPAGGQEAEGSAPTRSQDP
modifications: left off: … (GSGS linker and polyhistidine tag), C-terminal, kept
Question: With B3 as the molecule, how does the oligomeric state [1] read?
Answer: monomeric in aqueous solution
